Measured values from patent US20250152742A1, “COMPOSITIONS AND METHODS FOR NEUROLOGICAL DISEASES” (Trames Bio, Inc., priority 2022, published 2025).

Test system: engineered chimeric receptor SEQ ID NO: 33 and its mutants (human α7-nAChR ligand binding domain / human GlyRα1 ion pore domain) in Lenti-X 293T cells
Experiment: YFP fluorescence quenching anion reporter plate reader assay (percent quench, EC50)
Format: cell-based
Conditions: for YFP fluorescence quenching using CNL001 (percent quench): receptor named in row; for YFP fluorescence quenching using Varenicline, 3 nM var: ligand Varenicline 3 nM; for YFP fluorescence quenching using Varenicline, 30 nM var: ligand Varenicline 30 nM; for YFP fluorescence quenching using Varenicline, 300 nM var: ligand Varenicline 300 nM; for YFP fluorescence quenching using Varenicline, 500 nM var: ligand Varenicline 500 nM; for YFP fluorescence quenching using Varenicline, 1 uM var: ligand Varenicline 1 uM
Method in brief: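 Lenti-X 293T cells co-expressing an anion-quenchable YFP were transiently transfected with receptor DNA, then ligand was added in NaI-substituted buffer (pH 7.2) after 30 min at 37 °C. Fluorescence was read about 2 min; percent quench = mean of last 10 s over 15 s pre-ligand baseline.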

B1: CODA71: parental chimeric LGIC: human α7-nAChR ligand binding domain with GlyRα1 Cys-loop fused to human GlyRα1 ion pore domain (protein)
chain: MRCSPGGVWLALAASLLHVSLQGEFQRKLYKELVKNYNPLERPVANDSQPLTVYFSLSLLQIMDVDEKNQVLTTNIWLQMSWTDHYLQWNVSEYPGVKTVRFPDGQIWKPDILLYNSADERFDATFHTNVLVNSSGHCQYLPPGIFKSSCPMDLKNFPMDVQTCKLKFGSWSYGGWSLDLQMQEADISGYIPNGEWDLVGIPGKRSERFYECCKEPYPDVTFTVTMRRRMGYYLIQMYIPSLLIVILSWISFWINMDAAPARVGLGITTVLTMTTQSSGSRASLPKVSYVKAIDIWMAVCLLFVFSALLEYAAVNFVSRQHKELLRFRRKRRHHKSPMLNLFQEDEAGEGRFNFSAYGMGPACLQAKDGISVKGANNSNTTNPPPAPSKSPEEMRKLFIQRAKKIDKISRIGFPMAFLIFNMFYWIIYKIVRREDVHNQ
modifications: synthetic sequence of chimeric LGIC
For B1, the “YFP fluorescence quenching using CNL001 (percent quench)” value (1 nM CNL001, first column so headed) was 3.727%, the “YFP fluorescence quenching using CNL001 (percent quench)” value (1 nM CNL001, second column so headed) was 20.231% and the “YFP fluorescence quenching using TC-5619/Bradanicline (percent quench)” value (1 nM brd (TC-5619/Bradanicline)) was 9.41%. For the same molecule, the “YFP fluorescence quenching using TC-5619/Bradanicline (percent quench)” value (3 nM brd (TC-5619/Bradanicline)) was 44.38%, the “YFP fluorescence quenching using CNL001 (percent quench)” value (10 nM CNL001, first column so headed) was 81.096% and the “YFP fluorescence quenching using CNL001 (percent quench)” value (10 nM CNL001, second column so headed) was 82.368%. For the same molecule, the “YFP fluorescence quenching using TC-5619/Bradanicline (percent quench)” value (10 nM brd (TC-5619/Bradanicline)) was 76.61%, the “YFP fluorescence quenching using TC-6683 (percent quench)” value (30 nM TC-6683) was −14.43% and the “YFP fluorescence quenching using TC-5619/Bradanicline (percent quench)” value (30 nM brd (TC-5619/Bradanicline)) was 70.23%. The “YFP fluorescence quenching using CNL001 (percent quench)” value (50 nM CNL001, first column so headed) was 83.62%, the “YFP fluorescence quenching using CNL001 (percent quench)” value (50 nM CNL001, second column so headed) was 84.482% and the “YFP fluorescence quenching using ABT-126 (percent quench)” value (50 nM abt (ABT-126)) was −1.98%. The “YFP fluorescence quenching using CNL001 (percent quench)” value (100 nM CNL001, first column so headed) was 84.297%, the “YFP fluorescence quenching using CNL001 (percent quench)” value (100 nM CNL001, second column so headed) was 85.368% and the “YFP fluorescence quenching (percent quench)” value (100 nM CNL002) was 49.61%. The “YFP fluorescence quenching using ABT-126 (percent quench)” value (100 nM abt (ABT-126)) was 24.27%, the “YFP fluorescence quenching using AZD-0328 (percent quench)” value (100 nM azd0328) was 73.59% and the “YFP fluorescence quenching using TC-5619/Bradanicline (percent quench)” value (100 nM brd (TC-5619/Bradanicline)) was 78.62%. The “YFP fluorescence quenching using TC-6683 (percent quench)” value (300 nM TC-6683) was −13.08%, the “YFP fluorescence quenching using ABT-126 (percent quench)” value (300 nM abt (ABT-126)) was 56.8% and the “YFP fluorescence quenching using AZD-0328 (percent quench)” value (300 nM azd0328) was 78.09%. For the same molecule, the “YFP fluorescence quenching using TC-5619/Bradanicline (percent quench)” value (300 nM brd (TC-5619/Bradanicline)) was 75.51%, the “YFP fluorescence quenching using ABT-126 (percent quench)” value (500 nM abt (ABT-126)) was 76.28% and the “YFP fluorescence quenching using CNL001 (percent quench)” value (1 uM CNL001, first column so headed) was 85.647%. For the same molecule, the “YFP fluorescence quenching using CNL001 (percent quench)” value (1 uM CNL001, second column so headed) was 86.358%, the “YFP fluorescence quenching (percent quench)” value (1 uM CNL002) was 74.15% and the “YFP fluorescence quenching using ABT-126 (percent quench)” value (1 uM abt (ABT-126)) was 73.16%. The “YFP fluorescence quenching using TC-6683 (percent quench)” value (3 uM TC-6683) was −13.71%, the “YFP fluorescence quenching using ABT-126 (percent quench)” value (3 uM abt (ABT-126)) was 70.98% and the “YFP fluorescence quenching using ABT-126 (percent quench)” value (10 uM abt (ABT-126)) was 72.62%. The “YFP fluorescence quenching (percent quench)” value (10 uM ach (acetylcholine)) was 15.61%, the “YFP fluorescence quenching (percent quench)” value (30 uM CNL002) was 75.21% and the “YFP fluorescence quenching using TC-6683 (percent quench)” value (30 uM TC-6683) was −14.02%. The “YFP fluorescence quenching using ABT-126 (percent quench)” value (30 uM abt (ABT-126)) was 77.49%, the “YFP fluorescence quenching (percent quench)” value (30 uM ach (acetylcholine)) was 63.31% and the “YFP fluorescence quenching using AZD-0328 (percent quench)” value (30 uM azd0328) was 79.05%. The “YFP fluorescence quenching using ABT-126 (percent quench)” value (50 uM abt (ABT-126)) was 77.96%, the “YFP fluorescence quenching (percent quench)” value (50 uM ach (acetylcholine)) was 73.16% and the “YFP fluorescence quenching using TC-6683 (percent quench)” value (100 uM TC-6683) was −8.77%. For the same molecule, the “YFP fluorescence quenching using ABT-126 (percent quench)” value (100 uM abt (ABT-126)) was 77.81%, the “YFP fluorescence quenching (percent quench)” value (100 uM ach (acetylcholine)) was 74.94% and the “YFP fluorescence quenching (percent quench)” value (300 uM ach (acetylcholine)) was 65.94%. The “YFP fluorescence quenching (percent quench)” value (500 uM ach (acetylcholine)) was 62.78%, the “YFP fluorescence quenching (percent quench)” value (1 mM ach (acetylcholine)) was 74.24% and the “YFP fluorescence quenching (percent quench)” value (3 mM ach (acetylcholine)) was 76.27%. For the same molecule, the “YFP fluorescence quenching (percent quench)” value (5 mM ach (acetylcholine)) was 77.15%, the “YFP fluorescence quenching (percent quench)” value (10 mM ach (acetylcholine)) was 77.96% and the “YFP fluorescence quenching using Facinicline, 30 nM fac” value (ligand Facinicline 30 nM) was 53.42. The “YFP fluorescence quenching using Facinicline, 100 nM fac” value (ligand Facinicline 100 nM) was 83.6, the “YFP fluorescence quenching using Facinicline, 300 nM fac” value (ligand Facinicline 300 nM) was 77.44 and the “YFP fluorescence quenching using Facinicline, 30 uM fac” value (ligand Facinicline 30 uM) was 79.62. For the same molecule, the “YFP fluorescence quenching using TC-6987, 1 uM tc6987” value (ligand TC-6987 1 uM) was 31.56, the “YFP fluorescence quenching using TC-6987, 3 uM tc6987” value (ligand TC-6987 3 uM) was 31.82 and the “YFP fluorescence quenching using TC-6987, 5 uM tc6987” value (ligand TC-6987 5 uM) was 30.75. The “YFP fluorescence quenching using TC-6987, 10 uM tc6987” value (ligand TC-6987 10 uM) was 56.68, the “YFP fluorescence quenching using TC-6987, 30 uM tc6987” value (ligand TC-6987 30 uM) was 51.46 and the “YFP fluorescence quenching using TC-6987, 50 uM tc6987” value (ligand TC-6987 50 uM) was 61.26. The “YFP fluorescence quenching using TC-6987, 100 uM tc6987” value (ligand TC-6987 100 uM) was 43.21, the “YFP fluorescence quenching using TC-6987, 300 uM tc6987” value (ligand TC-6987 300 uM) was 7.79 and the “YFP fluorescence quenching using TC-6987, 500 uM tc6987” value (ligand TC-6987 500 uM) was 51.58. For the same molecule, the “YFP fluorescence quenching using Varenicline, 3 nM var” value (first column) was −2.36, the “YFP fluorescence quenching using Varenicline, 3 nM var” value (second column) was −3.522 and the “YFP fluorescence quenching using Varenicline, 30 nM var” value (first column) was −4.255. The “YFP fluorescence quenching using Varenicline, 30 nM var” value (second column) was −3.636, the “YFP fluorescence quenching using Varenicline, 300 nM var” value (first column) was 46.195 and the “YFP fluorescence quenching using Varenicline, 300 nM var” value (second column) was 45.522. The “YFP fluorescence quenching using Varenicline, 500 nM var” value (first column) was 69.253, the “YFP fluorescence quenching using Varenicline, 500 nM var” value (second column) was 71.705 and the “YFP fluorescence quenching using Varenicline, 1 uM var” value (first column) was 79.254. For the same molecule, the “YFP fluorescence quenching using Varenicline, 1 uM var” value (second column) was 79.244.
